This assay concerns the target D. radiodurans DNA gyrase holoenzyme (reconstituted from GyrA::6His and 6His::GyrB) (D. radiodurans) (UniProt Q9RT53).

B1: PprA::6His protein (natural protein)
chain: MLPLAFLICSGHNKGSMARAKAKDQTDGIYAAFDTLMSTAGVDSQIAALAASEADAGTLDAALTQSLQEAQGRWGLGLHHLRHEARLTDDGDIEILTDGRPSARVSEGFGALAQAYAPMQALDERGLSQWAALGEGYRAPGDLPLAQLKVLIEHARDFETDWSAGRGETFQRVWRKGDTLFVEVARPASAEAALSDAAWDVIASIKDRAFQRELMRRSEKDGMLGALLGARHAGAKANLAQLPEAHFTVQAFVQTLSGAAARNAEEYRAALKTAAAALEEYQGVTTRQLSEVLRHGLRES
Turning to B1, the decatenation of kDNA by DNA gyrase (4 nM) with increasing concentrations of PprA; ratio of minicircles released with PprA over without PprA is 7 fold.

For the origin of these results see publication PMC4863600.
